In the supplement of paper PMC10266784:

B1: library; numbered along this chain (parent)
chain: MAAAAAAAAEQQSSNGPVKKSMREKAVERRSVNKEHNSNFKAGYIPIDEDRLHKTGLRGRKGNLAICVIILLFILAVINLIITLVIWAVIRIGPNGCDSMEFHESGLLRFKQVSDMGVIHPLYKSTVGGRRNENLVITGNNQPIVFQQGTTKLSVENNKTSITSDIGMQFFDPRTQNILFSTDYETHEFHLPSGVKSLNVQKASTERITSNATSDLNIKVDGRAIVRGNEGVFIMGKTIEFHMGGNMELKAENSIILNGSVMVSTTRLPSSSSGDQLGSGDWVRYKLCMCADGTLFKVQVTSQNMGCQISDNPCGNTH

Variants of: B1
Experiment: SGCB cell-surface expression functional score (HA stain, bin4 vs bin1, normalised to synonymous) (log10 ratio); higher = more cell-surface SGCB (functional)
Method: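 Deep mutational scan of full-length human SGCB (YFP-SGCB-HA, NNN codon sublibraries A-F) delivered by lentivirus at low MOI into ADG-HEK293 cells stably expressing SGCA, SGCD and SGCG. YFP-positive cells were stained for surface HA on unpermeabilized cells and FACS-sorted into bins. The functional score is log10(frequency in high bin 4 / frequency in low bin 1), normalised per chunk so that synonymous variants have mean 0 and SD 0.5. Scores are the median over codons and over duplicate biological replicates; scores below -0.5 are called non-functional. Scale: negative means deleterious.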

Variant	SGCB cell-surface expression functional score (log10)
MAAAAAAAAEQQSSNGPVKKSMREKAVERRSVNKEHNSNIKAGYIPIDEDRLHKTGLRGRKGNLAICVIILLFILAVINLIITLVIWAVIRIGPNGCDSMEFHESGLLRFKQVSDMGVIHPLYKSTVGGRRNENLVITGNNQPIVFQQGTTKLSVENNKTSITSDIGMQFFDPRTQNILFSTDYETHEFHLPSGVKSLNVQKASTERITSNATSDLNIKVDGRAIVRGNEGVFIMGKTIEFHMGGNMELKAENSIILNGSVMVSTTRLPSSSSGDQLGSGDWVRYKLCMCADGTLFKVQVTSQNMGCQISDNPCGNTH [F40I]	0.24
MAAAAAAAAEQQSSNGPVKKSMREKAVERRSVNKEHNSNNKAGYIPIDEDRLHKTGLRGRKGNLAICVIILLFILAVINLIITLVIWAVIRIGPNGCDSMEFHESGLLRFKQVSDMGVIHPLYKSTVGGRRNENLVITGNNQPIVFQQGTTKLSVENNKTSITSDIGMQFFDPRTQNILFSTDYETHEFHLPSGVKSLNVQKASTERITSNATSDLNIKVDGRAIVRGNEGVFIMGKTIEFHMGGNMELKAENSIILNGSVMVSTTRLPSSSSGDQLGSGDWVRYKLCMCADGTLFKVQVTSQNMGCQISDNPCGNTH [F40N]	-0.16
MAAAAAAAAEQQSSNGPVKKSMREKAVERRSVNKEHNSNPKAGYIPIDEDRLHKTGLRGRKGNLAICVIILLFILAVINLIITLVIWAVIRIGPNGCDSMEFHESGLLRFKQVSDMGVIHPLYKSTVGGRRNENLVITGNNQPIVFQQGTTKLSVENNKTSITSDIGMQFFDPRTQNILFSTDYETHEFHLPSGVKSLNVQKASTERITSNATSDLNIKVDGRAIVRGNEGVFIMGKTIEFHMGGNMELKAENSIILNGSVMVSTTRLPSSSSGDQLGSGDWVRYKLCMCADGTLFKVQVTSQNMGCQISDNPCGNTH [F40P]	-0.13
MAAAAAAAAEQQSSNGPVKKSMREKAVERRSVNKEHNSNYKAGYIPIDEDRLHKTGLRGRKGNLAICVIILLFILAVINLIITLVIWAVIRIGPNGCDSMEFHESGLLRFKQVSDMGVIHPLYKSTVGGRRNENLVITGNNQPIVFQQGTTKLSVENNKTSITSDIGMQFFDPRTQNILFSTDYETHEFHLPSGVKSLNVQKASTERITSNATSDLNIKVDGRAIVRGNEGVFIMGKTIEFHMGGNMELKAENSIILNGSVMVSTTRLPSSSSGDQLGSGDWVRYKLCMCADGTLFKVQVTSQNMGCQISDNPCGNTH [F40Y]	0.49
MAAAAAAAAEQQSSNGPVKKSMREKAVERRSVNKEHNSNWKAGYIPIDEDRLHKTGLRGRKGNLAICVIILLFILAVINLIITLVIWAVIRIGPNGCDSMEFHESGLLRFKQVSDMGVIHPLYKSTVGGRRNENLVITGNNQPIVFQQGTTKLSVENNKTSITSDIGMQFFDPRTQNILFSTDYETHEFHLPSGVKSLNVQKASTERITSNATSDLNIKVDGRAIVRGNEGVFIMGKTIEFHMGGNMELKAENSIILNGSVMVSTTRLPSSSSGDQLGSGDWVRYKLCMCADGTLFKVQVTSQNMGCQISDNPCGNTH [F40W]	-0.21
MAAAAAAAAEQQSSNGPVKKSMREKAVERRSVNKEHNSNQKAGYIPIDEDRLHKTGLRGRKGNLAICVIILLFILAVINLIITLVIWAVIRIGPNGCDSMEFHESGLLRFKQVSDMGVIHPLYKSTVGGRRNENLVITGNNQPIVFQQGTTKLSVENNKTSITSDIGMQFFDPRTQNILFSTDYETHEFHLPSGVKSLNVQKASTERITSNATSDLNIKVDGRAIVRGNEGVFIMGKTIEFHMGGNMELKAENSIILNGSVMVSTTRLPSSSSGDQLGSGDWVRYKLCMCADGTLFKVQVTSQNMGCQISDNPCGNTH [F40Q]	0.03
MAAAAAAAAEQQSSNGPVKKSMREKAVERRSVNKEHNSNKKAGYIPIDEDRLHKTGLRGRKGNLAICVIILLFILAVINLIITLVIWAVIRIGPNGCDSMEFHESGLLRFKQVSDMGVIHPLYKSTVGGRRNENLVITGNNQPIVFQQGTTKLSVENNKTSITSDIGMQFFDPRTQNILFSTDYETHEFHLPSGVKSLNVQKASTERITSNATSDLNIKVDGRAIVRGNEGVFIMGKTIEFHMGGNMELKAENSIILNGSVMVSTTRLPSSSSGDQLGSGDWVRYKLCMCADGTLFKVQVTSQNMGCQISDNPCGNTH [F40K]	0.55
MAAAAAAAAEQQSSNGPVKKSMREKAVERRSVNKEHNSNTKAGYIPIDEDRLHKTGLRGRKGNLAICVIILLFILAVINLIITLVIWAVIRIGPNGCDSMEFHESGLLRFKQVSDMGVIHPLYKSTVGGRRNENLVITGNNQPIVFQQGTTKLSVENNKTSITSDIGMQFFDPRTQNILFSTDYETHEFHLPSGVKSLNVQKASTERITSNATSDLNIKVDGRAIVRGNEGVFIMGKTIEFHMGGNMELKAENSIILNGSVMVSTTRLPSSSSGDQLGSGDWVRYKLCMCADGTLFKVQVTSQNMGCQISDNPCGNTH [F40T]	0.19
MAAAAAAAAEQQSSNGPVKKSMREKAVERRSVNKEHNSNMKAGYIPIDEDRLHKTGLRGRKGNLAICVIILLFILAVINLIITLVIWAVIRIGPNGCDSMEFHESGLLRFKQVSDMGVIHPLYKSTVGGRRNENLVITGNNQPIVFQQGTTKLSVENNKTSITSDIGMQFFDPRTQNILFSTDYETHEFHLPSGVKSLNVQKASTERITSNATSDLNIKVDGRAIVRGNEGVFIMGKTIEFHMGGNMELKAENSIILNGSVMVSTTRLPSSSSGDQLGSGDWVRYKLCMCADGTLFKVQVTSQNMGCQISDNPCGNTH [F40M]	-0.28
MAAAAAAAAEQQSSNGPVKKSMREKAVERRSVNKEHNSNGKAGYIPIDEDRLHKTGLRGRKGNLAICVIILLFILAVINLIITLVIWAVIRIGPNGCDSMEFHESGLLRFKQVSDMGVIHPLYKSTVGGRRNENLVITGNNQPIVFQQGTTKLSVENNKTSITSDIGMQFFDPRTQNILFSTDYETHEFHLPSGVKSLNVQKASTERITSNATSDLNIKVDGRAIVRGNEGVFIMGKTIEFHMGGNMELKAENSIILNGSVMVSTTRLPSSSSGDQLGSGDWVRYKLCMCADGTLFKVQVTSQNMGCQISDNPCGNTH [F40G]	-0.49
MAAAAAAAAEQQSSNGPVKKSMREKAVERRSVNKEHNSNLKAGYIPIDEDRLHKTGLRGRKGNLAICVIILLFILAVINLIITLVIWAVIRIGPNGCDSMEFHESGLLRFKQVSDMGVIHPLYKSTVGGRRNENLVITGNNQPIVFQQGTTKLSVENNKTSITSDIGMQFFDPRTQNILFSTDYETHEFHLPSGVKSLNVQKASTERITSNATSDLNIKVDGRAIVRGNEGVFIMGKTIEFHMGGNMELKAENSIILNGSVMVSTTRLPSSSSGDQLGSGDWVRYKLCMCADGTLFKVQVTSQNMGCQISDNPCGNTH [F40L]	-0.13
MAAAAAAAAEQQSSNGPVKKSMREKAVERRSVNKEHNSNVKAGYIPIDEDRLHKTGLRGRKGNLAICVIILLFILAVINLIITLVIWAVIRIGPNGCDSMEFHESGLLRFKQVSDMGVIHPLYKSTVGGRRNENLVITGNNQPIVFQQGTTKLSVENNKTSITSDIGMQFFDPRTQNILFSTDYETHEFHLPSGVKSLNVQKASTERITSNATSDLNIKVDGRAIVRGNEGVFIMGKTIEFHMGGNMELKAENSIILNGSVMVSTTRLPSSSSGDQLGSGDWVRYKLCMCADGTLFKVQVTSQNMGCQISDNPCGNTH [F40V]	0.27
MAAAAAAAAEQQSSNGPVKKSMREKAVERRSVNKEHNSNHKAGYIPIDEDRLHKTGLRGRKGNLAICVIILLFILAVINLIITLVIWAVIRIGPNGCDSMEFHESGLLRFKQVSDMGVIHPLYKSTVGGRRNENLVITGNNQPIVFQQGTTKLSVENNKTSITSDIGMQFFDPRTQNILFSTDYETHEFHLPSGVKSLNVQKASTERITSNATSDLNIKVDGRAIVRGNEGVFIMGKTIEFHMGGNMELKAENSIILNGSVMVSTTRLPSSSSGDQLGSGDWVRYKLCMCADGTLFKVQVTSQNMGCQISDNPCGNTH [F40H]	-0.44
MAAAAAAAAEQQSSNGPVKKSMREKAVERRSVNKEHNSNSKAGYIPIDEDRLHKTGLRGRKGNLAICVIILLFILAVINLIITLVIWAVIRIGPNGCDSMEFHESGLLRFKQVSDMGVIHPLYKSTVGGRRNENLVITGNNQPIVFQQGTTKLSVENNKTSITSDIGMQFFDPRTQNILFSTDYETHEFHLPSGVKSLNVQKASTERITSNATSDLNIKVDGRAIVRGNEGVFIMGKTIEFHMGGNMELKAENSIILNGSVMVSTTRLPSSSSGDQLGSGDWVRYKLCMCADGTLFKVQVTSQNMGCQISDNPCGNTH [F40S]	0.16
MAAAAAAAAEQQSSNGPVKKSMREKAVERRSVNKEHNSNRKAGYIPIDEDRLHKTGLRGRKGNLAICVIILLFILAVINLIITLVIWAVIRIGPNGCDSMEFHESGLLRFKQVSDMGVIHPLYKSTVGGRRNENLVITGNNQPIVFQQGTTKLSVENNKTSITSDIGMQFFDPRTQNILFSTDYETHEFHLPSGVKSLNVQKASTERITSNATSDLNIKVDGRAIVRGNEGVFIMGKTIEFHMGGNMELKAENSIILNGSVMVSTTRLPSSSSGDQLGSGDWVRYKLCMCADGTLFKVQVTSQNMGCQISDNPCGNTH [F40R]	-0.05
MAAAAAAAAEQQSSNGPVKKSMREKAVERRSVNKEHNSNFAAGYIPIDEDRLHKTGLRGRKGNLAICVIILLFILAVINLIITLVIWAVIRIGPNGCDSMEFHESGLLRFKQVSDMGVIHPLYKSTVGGRRNENLVITGNNQPIVFQQGTTKLSVENNKTSITSDIGMQFFDPRTQNILFSTDYETHEFHLPSGVKSLNVQKASTERITSNATSDLNIKVDGRAIVRGNEGVFIMGKTIEFHMGGNMELKAENSIILNGSVMVSTTRLPSSSSGDQLGSGDWVRYKLCMCADGTLFKVQVTSQNMGCQISDNPCGNTH [K41A]	0.77
MAAAAAAAAEQQSSNGPVKKSMREKAVERRSVNKEHNSNFDAGYIPIDEDRLHKTGLRGRKGNLAICVIILLFILAVINLIITLVIWAVIRIGPNGCDSMEFHESGLLRFKQVSDMGVIHPLYKSTVGGRRNENLVITGNNQPIVFQQGTTKLSVENNKTSITSDIGMQFFDPRTQNILFSTDYETHEFHLPSGVKSLNVQKASTERITSNATSDLNIKVDGRAIVRGNEGVFIMGKTIEFHMGGNMELKAENSIILNGSVMVSTTRLPSSSSGDQLGSGDWVRYKLCMCADGTLFKVQVTSQNMGCQISDNPCGNTH [K41D]	-0.08
MAAAAAAAAEQQSSNGPVKKSMREKAVERRSVNKEHNSNFCAGYIPIDEDRLHKTGLRGRKGNLAICVIILLFILAVINLIITLVIWAVIRIGPNGCDSMEFHESGLLRFKQVSDMGVIHPLYKSTVGGRRNENLVITGNNQPIVFQQGTTKLSVENNKTSITSDIGMQFFDPRTQNILFSTDYETHEFHLPSGVKSLNVQKASTERITSNATSDLNIKVDGRAIVRGNEGVFIMGKTIEFHMGGNMELKAENSIILNGSVMVSTTRLPSSSSGDQLGSGDWVRYKLCMCADGTLFKVQVTSQNMGCQISDNPCGNTH [K41C]	-0.2
MAAAAAAAAEQQSSNGPVKKSMREKAVERRSVNKEHNSNFEAGYIPIDEDRLHKTGLRGRKGNLAICVIILLFILAVINLIITLVIWAVIRIGPNGCDSMEFHESGLLRFKQVSDMGVIHPLYKSTVGGRRNENLVITGNNQPIVFQQGTTKLSVENNKTSITSDIGMQFFDPRTQNILFSTDYETHEFHLPSGVKSLNVQKASTERITSNATSDLNIKVDGRAIVRGNEGVFIMGKTIEFHMGGNMELKAENSIILNGSVMVSTTRLPSSSSGDQLGSGDWVRYKLCMCADGTLFKVQVTSQNMGCQISDNPCGNTH [K41E]	0.61
